Experimental data published in patent US20220372155A1 (LYVGEN BIOPHARMA, published 2022).

Assays:
[1] = target: T1, human PD-1 expressed on CHO cells (human, UniProt Q15116 25-288); assay: FACS, CHO cells
T1 construct: whole, on cells; also used for human PD-1 on Jurkat reporter cells; also called Jurkat/NFkB-Luci/PD-1 cells

[2] = target: T2, human CD40 expressed on CHO cells (human, UniProt P25942 21-277); assay: FACS, CHO cells
T2 construct: whole, on cells; also used for the reporter cells over-expressing human CD40; also called cellular CD40; CHO-CD40 cells
T2 sequence (P25942 21-277): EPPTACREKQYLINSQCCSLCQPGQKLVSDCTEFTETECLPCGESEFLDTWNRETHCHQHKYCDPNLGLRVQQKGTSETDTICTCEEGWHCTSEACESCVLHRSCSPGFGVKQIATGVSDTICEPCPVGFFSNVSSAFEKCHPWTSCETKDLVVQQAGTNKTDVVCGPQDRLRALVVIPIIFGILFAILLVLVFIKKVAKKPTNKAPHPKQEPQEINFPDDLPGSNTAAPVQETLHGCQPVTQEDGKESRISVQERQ

T1 sequence (Q15116 25-288): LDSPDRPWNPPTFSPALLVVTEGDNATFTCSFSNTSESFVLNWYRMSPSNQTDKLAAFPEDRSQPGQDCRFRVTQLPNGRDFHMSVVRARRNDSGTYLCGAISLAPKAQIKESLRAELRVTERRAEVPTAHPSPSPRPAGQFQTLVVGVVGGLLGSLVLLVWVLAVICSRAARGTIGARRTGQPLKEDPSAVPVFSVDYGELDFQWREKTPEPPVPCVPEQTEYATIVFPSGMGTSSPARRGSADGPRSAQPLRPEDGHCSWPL

Row | Binder | binding result [1] | binding result [2]
1 | Ly817 (bispecific antibody, human IgG1, kappa, Ly516 HC (IgG1 mutated Fc) + Ly516 LC-TM740 scFv VL-VH) heavy: QVTLKESGPALVKPTQTLTLTCTFSGFSLSTSGTCVSWIRQPPGKALEWLATICWEDSKGYNPSLKSRLTISKDTSKNQAVLTMTNMDPVDTATYYCARREDSGYFWFPYWGQGTLVTVSSASTKGPSVFPLAPSSKSTSGGTAALGCLVKDYFPEPVTVSWNSGALTSGVHTFPAVLQSSGLYSLSSVVTVPSSSLGTQTYICNVNHKPSNTKVDKKVEPKSCDKTHTCPPCPAPELLGPSVFLFPPKPKDTLMISRTPEVTCVVVDVSHEDPEVKFNWYVDGVEVHNAKTKPREEQYNSTYRVVSVLTVLHQDWLNGKEYKCKVSNKALPAPIEKTISKAKGQPREPQVYTLPPSREEMTKNQVSLTCLVKGFYPSDIAVEWESNGQPENNYKTTPPVLDSDGSFFLYSKLTVDKSRWQQGNVFSCSVMHEALHNHYTQKSLSLSPGK light: NIQMTQSPSSLSASVGDRVTITCKAGQNVNNYLAWYQQKPGKAPKVLIFNANSLQTGVPSRFSGSGSGTDFTLTISSLQPEDFATYYCQQYNSWPTFGGGTKVEIKRTVAAPSVFIFPPSDEQLKSGTASVVCLLNNFYPREAKVQWKVDNALQSGNSQESVTEQDSKDSTYSLSSTLTLSKADYEKHKVYACEVTHQGLSSPVTKSFNRGECGGGGSGGGGSGGGGSGGGGSDIQMTQSPSSLSASVGDRVTITCKASQNIYIYLNWYQQKPGKAPKLLIYNTNNLQTGVPSRFSGSGSGTDFTLTISSLQPEDFATYYCLQHSSRRTFGGGTKVEIKGGGGSGGGGSGGGGSGGGGSQVQLVESGGGLVQPGGSLKLSCATSGFNFNDYFMNWVRQASGKGLEWVGQIRNKNYNYATYYTESLEGRVTISRDDSKNTAYLQMNSLKTEDTAVYYCTSYYYDGFADYFDYWGQGTTVTVSS | binds | binds
2 | Ly818 (bispecific antibody, human IgG1, kappa, Ly516 HC (IgG1 mutated Fc) + Ly516 LC-TM740 scFv VH-VL) heavy: QVTLKESGPALVKPTQTLTLTCTFSGFSLSTSGTCVSWIRQPPGKALEWLATICWEDSKGYNPSLKSRLTISKDTSKNQAVLTMTNMDPVDTATYYCARREDSGYFWFPYWGQGTLVTVSSASTKGPSVFPLAPSSKSTSGGTAALGCLVKDYFPEPVTVSWNSGALTSGVHTFPAVLQSSGLYSLSSVVTVPSSSLGTQTYICNVNHKPSNTKVDKKVEPKSCDKTHTCPPCPAPELLGPSVFLFPPKPKDTLMISRTPEVTCVVVDVSHEDPEVKFNWYVDGVEVHNAKTKPREEQYNSTYRVVSVLTVLHQDWLNGKEYKCKVSNKALPAPIEKTISKAKGQPREPQVYTLPPSREEMTKNQVSLTCLVKGFYPSDIAVEWESNGQPENNYKTTPPVLDSDGSFFLYSKLTVDKSRWQQGNVFSCSVMHEALHNHYTQKSLSLSPGK light: NIQMTQSPSSLSASVGDRVTITCKAGQNVNNYLAWYQQKPGKAPKVLIFNANSLQTGVPSRFSGSGSGTDFTLTISSLQPEDFATYYCQQYNSWPTFGGGTKVEIKRTVAAPSVFIFPPSDEQLKSGTASVVCLLNNFYPREAKVQWKVDNALQSGNSQESVTEQDSKDSTYSLSSTLTLSKADYEKHKVYACEVTHQGLSSPVTKSFNRGECGGGGSGGGGSGGGGSGGGGSQVQLVESGGGLVQPGGSLKLSCATSGFNFNDYFMNWVRQASGKGLEWVGQIRNKNYNYATYYTESLEGRVTISRDDSKNTAYLQMNSLKTEDTAVYYCTSYYYDGFADYFDYWGQGTTVTVSSGGGGSGGGGSGGGGSGGGGSDIQMTQSPSSLSASVGDRVTITCKASQNIYIYLNWYQQKPGKAPKLLIYNTNNLQTGVPSRFSGSGSGTDFTLTISSLQPEDFATYYCLQHSSRRTFGGGTKVEIK | binds | binds
